Target: T1, His-tagged Set7 (human, UniProt Q8WTS6 1-366)
T1 sequence (looked up): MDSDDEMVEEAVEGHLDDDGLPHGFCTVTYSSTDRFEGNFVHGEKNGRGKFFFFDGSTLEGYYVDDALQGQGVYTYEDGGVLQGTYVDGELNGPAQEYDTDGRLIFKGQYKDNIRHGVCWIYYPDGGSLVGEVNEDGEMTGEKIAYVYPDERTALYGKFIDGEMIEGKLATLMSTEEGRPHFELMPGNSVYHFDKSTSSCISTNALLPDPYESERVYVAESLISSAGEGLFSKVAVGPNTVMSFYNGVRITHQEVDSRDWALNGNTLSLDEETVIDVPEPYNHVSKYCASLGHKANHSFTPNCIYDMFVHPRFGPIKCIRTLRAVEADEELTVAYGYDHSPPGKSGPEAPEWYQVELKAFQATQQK
Experiment: pull-down

B1: GST-HIF-1α-(amino acids 576–785) (domain or fragment, human, UniProt Q16665 576-785, looked up)
chain: SFDQLSPLESSSASPESASPQSTVTVFQQTQIQEPTANATTTTATTDELKTVTKDRMEDIKILIASPSPTHIHKETTSATSSPYRDTQSRTASPNRAGKGVIEQTEKSHPRSPNVLSVALSQRTTVPEEELNPKILALQNAQRKRKMEHDGSLFQAVGIGTLLQQPDDHAATTSLSWKRVKGCKSSEQNGMEQKTIILIPSDLACRLLGQ
  binding result: binds

Reference: publication PMC4446437 (Nucleic Acids Research, 2015)
